# Results taken from IntAct's records for PubMed 15558030.
# B1: Proto-oncogene vav (Homo sapiens), P15498 (parent)
# chain: MELWRQCTHWLIQCRVLPPSHRVTWDGAQVCELAQALRDGVLLCQLLNNLLPHAINLREVNLRPQMSQFLCLKNIRTFLSTCCEKFGLKRSELFEAFDLFDVQDFGKVIYTLSALSWTPIAQNRGIMPFPTEEESVGDEDIYSGLSDQIDDTVEEDEDLYDCVENEEAEGDEIYEDLMRSEPVSMPPKMTEYDKRCCCLREIQQTEEKYTDTLGSIQQHFLKPLQRFLKPQDIEIIFINIEDLLRVHTHFLKEMKEALGTPGAANLYQVFIKYKERFLVYGRYCSQVESASKHLDRVAAAREDVQMKLEECSQRANNGRFTLRDLLMVPMQRVLKYHLLLQELVKHTQEAMEKENLRLALDAMRDLAQCVNEVKRDNETLRQITNFQLSIENLDQSLAHYGRPKIDGELKITSVERRSKMDRYAFLLDKALLICKRRGDSYDLKDFVNLHSFQVRDDSSGDRDNKKWSHMFLLIEDQGAQGYELFFKTRELKKKWMEQFEMAISNIYPENATANGHDFQMFSFEETTSCKACQMLLRGTFYQGYRCHRCRASAHKECLGRVPPCGRHGQDFPGTMKKDKLHRRAQDKKRNELGLPKMEVFQEYYGLPPPPGAIGPFLRLNPGDIVELTKAEAEQNWWEGRNTSTNEIGWFPCNRVKPYVHGPPQDLSVHLWYAGPMERAGAESILANRSDGTFLVRQRVKDAAEFAISIKYNVEVKHIKIMTAEGLYRITEKKAFRGLTELVEFYQQNSLKDCFKSLDTTLQFPFKEPEKRTISRPAVGSTKYFGTAKARYDFCARDRSELSLKEGDIIKILNKKGQQGWWRGEIYGRVGWFPANYVEEDYSEYC
# partner: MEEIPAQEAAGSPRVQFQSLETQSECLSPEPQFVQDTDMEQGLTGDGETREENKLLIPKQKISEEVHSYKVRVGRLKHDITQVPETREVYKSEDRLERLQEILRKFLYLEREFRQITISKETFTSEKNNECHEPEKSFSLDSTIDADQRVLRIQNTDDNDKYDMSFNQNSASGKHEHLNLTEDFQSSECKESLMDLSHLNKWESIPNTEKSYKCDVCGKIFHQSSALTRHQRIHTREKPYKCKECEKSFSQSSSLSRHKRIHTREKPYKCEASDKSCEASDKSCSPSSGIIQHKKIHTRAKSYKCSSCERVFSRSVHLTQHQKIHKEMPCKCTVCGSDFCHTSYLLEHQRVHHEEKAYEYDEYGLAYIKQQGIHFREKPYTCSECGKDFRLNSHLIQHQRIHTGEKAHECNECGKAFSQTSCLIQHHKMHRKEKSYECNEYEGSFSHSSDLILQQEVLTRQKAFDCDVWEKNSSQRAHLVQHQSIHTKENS
# Variants of: B1
# Conditions: with zn655_human ZNF655, Q8N720
row,effect of a mutation on the interaction,Variant
1,decreasing interaction,P833L
2,decreasing interaction,Y836F
